Experimental data as given in article PMC4994864.

Molecular target: T1, His-yTop3 (Saccharomyces cerevisiae, UniProt P13099 1-656)
T1 sequence: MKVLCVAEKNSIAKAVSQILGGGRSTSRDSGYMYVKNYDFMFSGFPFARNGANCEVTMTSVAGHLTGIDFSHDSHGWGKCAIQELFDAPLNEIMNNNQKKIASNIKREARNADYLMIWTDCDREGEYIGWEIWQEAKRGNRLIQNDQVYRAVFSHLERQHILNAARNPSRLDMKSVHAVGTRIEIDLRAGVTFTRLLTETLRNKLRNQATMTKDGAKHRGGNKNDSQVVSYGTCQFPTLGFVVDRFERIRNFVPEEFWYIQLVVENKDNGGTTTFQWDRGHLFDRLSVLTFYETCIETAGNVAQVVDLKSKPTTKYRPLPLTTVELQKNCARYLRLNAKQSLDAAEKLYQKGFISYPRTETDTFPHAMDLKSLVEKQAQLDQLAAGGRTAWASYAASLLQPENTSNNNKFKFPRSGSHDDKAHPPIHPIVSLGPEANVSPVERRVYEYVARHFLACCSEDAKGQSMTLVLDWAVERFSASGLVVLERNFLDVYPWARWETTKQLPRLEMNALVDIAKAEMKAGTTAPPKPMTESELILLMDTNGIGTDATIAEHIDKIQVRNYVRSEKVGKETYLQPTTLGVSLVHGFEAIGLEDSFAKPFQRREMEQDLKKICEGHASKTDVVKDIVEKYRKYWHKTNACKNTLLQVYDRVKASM
Assay: EMSA; gel-shift band at 50 nM protein in the RNA topoisomerase reaction; abolished by phenol-chloroform; RNA topoisomerase reaction mixture; buffer, salt, pH and temperature not given in the material

B1: 128-nt circular RNA topoisomerase substrate (structured_RNA)
RNA: GGGAGAUUUUUUUUUUUUUUUUUUUUGUCAGACGGAUCUUUUUUUUUUUUUUUUUUUUUCUCCCGACUGGUUUUUUUUUUUUUUUUUUUUGAUCCGUCUGACUUUUUUUUUUUUUUUUUUUUCCAGUC
modifications: circularised with T4 RNA ligase (5' end joined to 3' end)
  binding result: binds
